The record followed here is the DeepSol protein solubility set.

This data set is described as follows: soluble on expression in E. coli; label from the status in PepcDB or PDB records.
Consider “EETIPLQTLRCYNDYTSHITCRWADTQDAQRLVNVTLIRRVNEDLLEPVSCDLSDDMPWSACPHPRCVPRRCVIPCQSFVVTDVDYFSFQPDRPLGTRLTVTLTQHVQPPEPRDLQISTDQDHFLLTWSVALGSPQSHWLSPGDLEFEVVYKRLQDSWEDAAILLSNTSQATLGPEHLMPSSTYVARVRTRLAPGSRLSGRPSKWSPEVCWDSQPGDEAQPQNLECFFDGAAVLSCSWEVRKEVASSVSFGLFYKPSPDAGEEECSPVLREGLGSLHTRHHCQIPVPDPATHGQYIVSVQPRRAEKHIKSSVNIQMAPPSLQVTKDGDSYSLRWETMKMRYEHIDHTFEIQYRKDTATWKDSKTETLQNAHSMALPALEPSTRYWARVRVRTSRTGYNGIWSEWSEARSWDTES”, for which the “soluble on expression in E. coli” value is given as “soluble”.
With “EIGEPDVTDATLGSVYSEIISPVKDCILTVAKAVSFNPGGKDNTDAVEVLTELNTKVERAALNQPILTTKTER” the entry was “soluble”.
With “EISLNGYGRFGLQYVEDRGVGLEDTIISSRLRINIVGTTETDQGVTFGAKLRMQWDDGDAFAGTAGNAAQFWTSYNGVTVSVGNVDTAFDSVALTYDSEMGYEASSFGDAQSSFFAYNSKYDASGALDNYNGIAVTYSISGVNLYLSYVDPDQTVDSSLVTEEFGIAADWSNDMISLAAAYTTDAGGIVDNDIAFVGAAYKFNGGGGPKLAKMEKARGGGGDAGTVGLNWYDNGLSTAGDQVTLYGNYAFGATTVRAYVSDIDRAGADTAYGIGADYQFAEGVKVSGSVQSGFANETVADVGVRFDF” the entry was “soluble”; with “EKAVLIGEKEADITFVTWGSQKGPILDVIEDLKEEGISANLLYLKMFSPFPTEFVKNVLSSANLVIDVESNYTAQAAQMIKLYTGIDIKNKILKYNGRHMTEDEILKSAKEILNKESLMVVLEDGS”, “not soluble”.
With “EKKYFEIHGVPSIIWGNPSSKLYIYIHGQCGNKEEAEAFANIAVPHECQVLSVDLPEHGERKREKNSFNPWHVVPELVSIMEYAKCHWNQISLYANSIGAWFSMLSFEKENLRECIFVSPILDMQQLISNMMLWANVSEEQLKHELIIPTSFGHTLSWEYLQYVKQHPITQWNVPTKILYGKHDELTEIGVVEKFVEKFNCNLTIIENGKHWFNTPQELNSLYEWLNTLVK” the entry was “not soluble”; with “EKQNEIQKKKARRHQLAMDYPEFISTFTLYLGAGMPARRAWFQIASVYRQQENTRYVYEEMVYTMREMQRGTPESECYEHFGMRCGLPVYRKFAVMLSQNLRKGTKGLAELLQREAAGAFEERKAAARKLGEETSTR”, “not soluble”.
As for “EKQSIHRTQLEALDSVITDLETSAQKGISLTEPEIFASLLETCYSLRAIDHGVRVHHLIPPYLLRNNLGISSKLVRLYASCGYAEVAHEVFDRMSKRDSSPFAWNSLISGYAELGQYEDAMALYFQMAEDGVKPDRFTFPRVLKACGGIGSVQIGEAIHRDLVKEGFGYDVYVLNALVVMYAKCGDIVKARNVFDMIPHKDYVSWNSMLTGYLHHGLLHEALDIFRLMVQNGIEPDKVAISSVLARVLSFKHGRQLHGWVIRRGMEWELSVANALIVLYSKRGQLGQACFIFDQMLERDTVSWNAIISAHSKNSNGLKYFEQMHRANAKPDGITFVSVLSLCANTGMVEDGERLFSLMSKEYGIDPKMEHYACMVNLYGRAGMMEEAYSMIVQEMGLEAGPTVWGALLYACYLHGNTDIGEVAAQRLFELEPDNEHNFELLIRIYSKAKRAEDVERVRQMMVDRGLET”, the “soluble on expression in E. coli” value was “soluble”.
For “EKVDIDLRDQVSLQHGAQIFTNYCLSCHSASGMRFNRLKDIGLTDEEIKKNLMFTTDNVGDVMHSAMNPKDAAKWFGAAPPDLTLIARSKGADYLYAYMRGFYKDPTRPSGWNNTVFDKVGMPHPLWEQQGVQAVELDAKGQPVMVKDEHGEMKPKLYWESTGLHSRRLPNGKVIQKEYDAYVRDLVNYLVYMGEPAQLQRKR” the value was “not soluble”.
For “ELHPRTGRLVSLSACGRTARRQQPGQEFNHGLVLSREPLRDGRVFTVRIDRKVNSWSGSIEIGVTALDPSVLDFPSSATGLKGGSWVVSGCSVLRDGRSVLEEYGQDLDQLGEGDRVGVERTVAGELRLWVNGRDCGVAATGLPPRVWAVVDLYGKCTQITVL” the value was “soluble”; for “ELPDFFQGKHFFLYGEFPGDERRKLIRYVTAFNGELEDYMSDRVQFVITAQEWDPSFEEALMDNPSLAFVRPRWIYSCNEKQKLLPHQLYGVVPQA”, “soluble”.
